Source: PMC8123555, “Precision targeting of the plasminogen activator inhibitor‐1 mechanism increases efficacy of fibrinolytic therapy in empyema” (Physiological Reports, 2021)

Experiments:
[1] = test system: plasminogen activating activity in pleural fluid; assay: Intrapleural inactivation of tPA and uPA plasminogen activating activity, TCN-induced injury; assay type: in vivo, rabbit; conditions: during PAI-1-TFT of chemically induced pleural injury; slower phase, 10-40 min
Method: Amidolytic activity was measured in clear 96‐well flat bottom plates from Costar (Corning Inc.) using a Synergy™ HT Hybrid Reader (BioTek, Winooski, VT). Amidolytic activity was calculated from the initial slopes of the time traces of the change in absorbance at 405 nm upon hydrolysis of chromogenic as described previously (Komissarov et al., 2009, 2013). The plasminogen activating activity was determined from the relative rate of activation of exogenous Glu‐plasminogen added to the reaction mixture containing 0.1–0.5 µl of pleural fluid in 0.1 ml of Hepes buffer solution with BSA (1 mg/ml) as previously described (Florova et al., 2013, 2018). The reaction mixtures (0.1 ml in black 96‐well flat bottom plates from Costar) contained 100 nM of human Glu‐plasminogen with 0.2 mM of SN‐5 plasmin fluorogenic substrate (HTI, Essex Junction, VT). Plasmin activity was measured by recording changes in the fluorescence emission at 470 nm (F470) with time (excitation at 352 nm) using a Synergy™ HT Hybrid Reader (BioTek, Winooski, VT). The level of plasminogen activating activity [PA] was calculated from slopes of linear dependences of F470 from square of time (t^2) (F470 = A [PA] t^2 + B; where A and B are constants), and results of measurements of standards with known concentrations of tcuPA and tctPA as previously described (Komissarov et al., 2009, 2013). […]

FITC‐fibrin = assay: Fibrinolytic activity in pleural fluids (FITC-fibrin film assay), empyema; assay type: in vivo, rabbit; conditions: PAI-1-TFT with 2.0 mg/kg DSP, infectious pleural injury; for Steady-state level of pleural fluid fibrinolytic activity: relative to supplemented baseline
Method: A Pilot Fibrinolytic Assay (FPA96F) was used to measure fibrinolytic potential (Beckert et al., 2019; Florova et al., 2015) and fibrinolytic activity (Florova et al., 2015, 2018; Komissarov et al., 2016) in pleural fluid samples. To prepare a FITC‐fibrin film, a 1:1 mixture of FITC‐tagged and unlabeled fibrinogen (0.4 mg/ml) in 0.05 M Hepes/NaOH (pH 7.5, 130 mM NaCl, 5 mM CaCl2) buffer at room temperature was transferred to black 96‐well flat bottom plates from Costar (Corning Inc, NY). Human thrombin (final concentration 10 nM) was added to each well and plates were dried overnight in a dark chemical hood at room temperature. 96‐well plates with FITC‐fibrin film were washed three times with 0.3 ml of cold Hepes/NaOH buffer and stored at −20°C up to one year. Fibrinolytic activity in pleural fluids was calculated from the slopes of time‐dependences of an increase in the fluorescence emission at 512 nm (excitation at 490 nm) due to the degradation of FITC‐fibrin. Fibrinolytic potential was determined as the difference between fibrinolytic activity in samples of pleural fluid at baseline (BL) or 24 h measured with and without supplementation with sctPA (Florova et al., 2015). To determine whether PAI‐1‐TFT affects fibrinolytic potential in rabbits, BL values were plotted against fibrinolytic potential at 24 h and the linear correlation was determined using Sigmaplot 14.0.

Substance | kobs of intrapleural inactivation of plasminogen activating activity [1] [min⁻¹] | kobs of decrease in pleural fluid fibrinolytic activity to steady state (FITC‐fibrin) [min⁻¹] | Steady-state level of pleural fluid fibrinolytic activity (FITC‐fibrin) [%]
Alteplase [sctPA, reference compound] | 0.02 to 0.05 | 0.48 ± 0.07 | 1.5
Prourokinase [scuPA] | 0.02 to 0.05 | 0.16 ± 0.06 | 2.5
